The record followed here is publication PMC2553597 (Nucleic Acids Research, 2008).

T1: RAD54B26-225 (Homo sapiens, UniProt Q9Y620 26-225)
T1 sequence: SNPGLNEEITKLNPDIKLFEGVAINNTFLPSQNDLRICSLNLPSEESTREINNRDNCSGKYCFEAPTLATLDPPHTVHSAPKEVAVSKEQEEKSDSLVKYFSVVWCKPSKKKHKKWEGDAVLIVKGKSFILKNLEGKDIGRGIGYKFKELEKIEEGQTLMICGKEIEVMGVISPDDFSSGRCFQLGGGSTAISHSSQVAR

T2: DMC1 (UniProt Q14565 1-340)
T2 sequence (looked up): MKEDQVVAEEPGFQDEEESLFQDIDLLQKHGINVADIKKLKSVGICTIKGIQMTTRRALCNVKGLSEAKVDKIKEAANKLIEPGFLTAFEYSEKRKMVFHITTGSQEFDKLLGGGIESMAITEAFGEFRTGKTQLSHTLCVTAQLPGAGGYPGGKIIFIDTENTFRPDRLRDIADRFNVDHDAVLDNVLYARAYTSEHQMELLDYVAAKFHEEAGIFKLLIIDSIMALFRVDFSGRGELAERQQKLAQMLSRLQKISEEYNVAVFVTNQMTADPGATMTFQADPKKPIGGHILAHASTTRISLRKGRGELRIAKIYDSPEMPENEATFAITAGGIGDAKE

B1: polyA 44-mer (ssDNA)
DNA: AAAAAAAAAAAAAAAAAAAAAAAAAAAAAAAAAAAAAAAAAAAA
B2: dsDNA (oligos 2/2a) (dsDNA)
DNA 1: TGGGTCAACGTGGGCAAAGATGTCCTAGCAATGTAATCGTCTATGACGTT
DNA 2: AACGTCATAGACGATTACATTGCTAGGACATCTTTGCCCACGTTGACCCA
B3: 5'-flapped DNA (oligos 2/8/15) (structured_DNA)
DNA 1: B2 DNA 1
DNA 2: CAACGTCATAGACGATTACATTGCTAATCACTGGCACTGGTAGAATTCGGC
DNA 3: TGCCGAATTCTACCAGTGCCAGTGAT
B4: 3'-PX junction (oligos 2/6/7/10) (structured_DNA)
DNA 1: B2 DNA 1
DNA 2: GTCGGATCCTCTAGACAGCTCCATGATCACTGGCACTGGTAGAATTCGGC
DNA 3: CAACGTCATAGACGATTACATTGCTACATGGAGCTGTCTAGAGGATCCGA
DNA 4: GGACATCTTTGCCCACGTTGACCC
B5: human RAD54B N-terminal fragment, amino acid residues 26-225 (RAD54B_(26–225)) (domain or fragment, UniProt Q9Y620 26-225, looked up)
chain: T1 sequence
B6: GST-fused DMC1 deletion mutant, amino acid residues 296-340 (fragment X) (domain or fragment, UniProt Q14565 296-340, looked up)
chain: ASTTRISLRKGRGELRIAKIYDSPEMPENEATFAITAGGIGDAKE
B7: GST-fused DMC1 deletion mutant, amino acid residues 153-214 (fragment VI) (domain or fragment, UniProt Q14565 153-214, looked up)
chain: GGKIIFIDTENTFRPDRLRDIADRFNVDHDAVLDNVLYARAYTSEHQMELLDYVAAKFHEEA

For series [1], the target named is T1, RAD54B26-225. The series can be described thus: EMSA. (In general: A gel shift assay detects complexes by their altered migration in electrophoresis.)
Series [2] concerns the target T1, RAD54B26-225. The series can be described thus: EMSA. This is another data set of the same source.
Series [3] deals with T1, RAD54B26-225. Put plainly: EMSA. The source holds these as a separate data set.
Series [4] deals with T1, RAD54B26-225. Put plainly: EMSA. The source holds these as a separate data set.
Series [5] concerns the molecule itself. The series can be described thus: SEC. For orientation: SEC sorts molecules by how far they enter the pores of the column.
In series [6] the target is T2, DMC1. The series can be described thus: pull-down.
For series [7], the target named is B5. The series can be described thus: pull-down.

Read-outs that look alike come from different tables or passages of the source.

With B1, the binding result in series [1] is listed as “binds”.

Regarding B2, the binding result in series [2] is given as “binds”.

On to B3, for which the binding result in series [3] was “binds”.

For B4, the binding result in series [4] is reported as “binds”.

For the molecule B5, the “stoichiometry N” value in series [5] turned out to be 2. Besides, the binding result in series [6] is recorded as “binds”.

For the molecule B6, the binding result in series [7] is on record as “binds”.

In the case of B7, the binding result in series [7] is given as “binds”.

Broadly, the stoichiometry N is a count of units in the complex or per binding partner.
